Source: US20140348836A1 (published 2014)
Positions count from the first letter of the chain named. Names may count otherwise.

B1: Antibody clone A4 (antibody, human IgG1, lambda, V domains shown)
VH: EVQLLESGGGLVQPGGSLRLSCAASGFTFSTYGMHWVRQAPGKGLEWLSYISGGSSYIFYADSVRGRFTISRDNSENALYLQMNSLRAEDTAVYYCARILRGGSGMDLWGQGTLVTVSS
VL: QSVLTQPPSASGTPGQRVTISCTGSTSNIGAGYKVYWYQQLPGTAPKLLIYGNINRPSGVPDRFSGSKSGTSASLAISGLRSEDEADYYCAAWDDSLSGLVFGGGTKLTVLG
notes: Tested as purified antibody; full chains are assembled here from VH/VL plus these; also called A4 ANTI-CD40 ANTIBODY
B2: Antibody clone C4 (antibody, human IgG1, lambda, V domains shown)
VH: B1 VH with S63T
VL: B1 VL
notes: Same VL changes as A4; VH carries S63T; also called C4 ANTI-CD40 ANTIBODY
B3: Antibody clone H11 (antibody, human IgG1, lambda, V domains shown)
VH: B1 VH
VL: B1 VL with T26S, K34N, D95G, S96G, S98L
notes: also called H11 ANTI-CD40 ANTIBODY
B4: Antibody B44 (antibody, V domains shown)
VH: B1 VH
VL: B1 VL with T26S, K34D
notes: Parent agonistic anti-CD40 antibody from the n-CoDeR library; Run alongside the IgG clones as 'B44 antibody' and detected with anti-human Ig on RAMOS cells; also called B44 antibody; original anti-CD40 antibody
B5: Antibody clone A5 (antibody, human IgG1, lambda, V domains shown)
VH: B1 VH
VL: B1 VL with T26S, K34H, N53S, A73G, D95S, L97S
B6: Antibody clone B9 (antibody, human IgG1, lambda, V domains shown)
VH: B1 VH
VL: B1 VL with T26S, K34N, D95G, S96G, S98L
B7: Antibody clone F6 (antibody, human IgG1, lambda, V domains shown)
VH: B1 VH
VL: B1 VL with T26S, K34D, G52R, D95G, S98L
B8: Antibody clone F9 (antibody, human IgG1, lambda, V domains shown)
VH: B1 VH
VL: B1 VL with T26S, K34G, D95G, S96T, S98T, V101L

target: T1, human CD40 on cells (human, UniProt P25942 21-277); assay: cell-based or functional assay
T1 sequence (P25942 21-277): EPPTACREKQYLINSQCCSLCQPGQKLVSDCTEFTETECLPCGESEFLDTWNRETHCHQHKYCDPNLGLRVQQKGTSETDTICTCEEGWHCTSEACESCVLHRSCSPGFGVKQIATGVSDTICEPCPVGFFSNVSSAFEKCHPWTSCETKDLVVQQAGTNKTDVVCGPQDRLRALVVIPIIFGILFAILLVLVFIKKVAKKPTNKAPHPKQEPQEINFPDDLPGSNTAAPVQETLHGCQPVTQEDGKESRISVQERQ

B1 was tested. Which “EC50 of CD80 up-regulation on monocyte-derived dendritic cells (FACS)” value (“EC50 of CD80 up-regulation” below) did it give?
Its value is 0.17 mg/L.

And the “EC50 of CD86 up-regulation on monocyte-derived dendritic cells (FACS)” value (“EC50 of CD86 up-regulation” below)?
The value was 0.13 mg/L.

What about the “EC50 of MHC II up-regulation on monocyte-derived dendritic cells (FACS)” value (“EC50 of MHC II up-regulation” below) of the same binder?
The value was 0.14 mg/L.

What about the “Maximum Fold Increase of CD80 on dendritic cells” value (from here on “Maximum Fold Increase of CD80”) of the same binder?
Its value is 599 fold.

What about the “Maximum Fold Increase of CD86 on dendritic cells” value (“Maximum Fold Increase of CD86” below) of the same binder?
The value was 149 fold.

What about the “Maximum Fold Increase of MHC II on dendritic cells” value (shortened to “Maximum Fold Increase of MHC II”) of the same binder?
The value was 851 fold.

Which “EC50 of CD80 up-regulation” value does the source give for B2 here?
Its value is 0.031 mg/L.

What about the “EC50 of CD86 up-regulation” value of the same binder?
Its value is 0.11 mg/L.

What about the “EC50 of MHC II up-regulation” value of the same binder?
The value was 0.04 mg/L.

What about the “Maximum Fold Increase of CD80” value of the same binder?
Its value is 609 fold.

What about the “Maximum Fold Increase of CD86” value of the same binder?
Its value is 164 fold.

And the “Maximum Fold Increase of MHC II” value?
Its value is 395 fold.

With B3 as the binder, how does the “EC50 of CD80 up-regulation” value read?
Its value is 0.14 mg/L.

And the “EC50 of CD86 up-regulation” value?
Its value is 0.14 mg/L.

And the “EC50 of MHC II up-regulation” value?
Its value is 0.22 mg/L.

What about the “Maximum Fold Increase of CD80” value of the same binder?
The value was 641 fold.

And the “Maximum Fold Increase of CD86” value?
The value was 195 fold.

What about the “Maximum Fold Increase of MHC II” value of the same binder?
The value was 481 fold.

For B4, which “EC50 of CD80 up-regulation” value is on record?
Its value is 0.25 mg/L.

And the “EC50 of CD86 up-regulation” value?
Its value is 0.37 mg/L.

What about the “EC50 of MHC II up-regulation” value of the same binder?
The value was 0.51 mg/L.

What about the “Maximum Fold Increase of CD80” value of the same binder?
Its value is 584 fold.

What about the “Maximum Fold Increase of CD86” value of the same binder?
Its value is 132 fold.

And the “Maximum Fold Increase of MHC II” value?
Its value is 811 fold.

target: T1, human CD40 on cells; assay: cell-based or functional assay; remark: another data set of the same source

B1 was tested. Which “Allo DC/T IFN-γ EC50” value did it give?
Its value is 0.04 mg/L.

What about the “Allo DC/T IFN-γ Max” value of the same binder?
The value was 8.9 pg/mL.

B5 was tested. Which “Allo DC/T IFN-γ EC50” value did it give?
The value was 0.08 mg/L.

What about the “Allo DC/T IFN-γ Max” value of the same binder?
Its value is 9.5 pg/mL.

Which results are given for B6?
Allo DC/T IFN-γ EC50: 0.03 mg/L; Allo DC/T IFN-γ Max: 8.5 pg/mL

How did the “Allo DC/T IFN-γ EC50” value turn out when B2 was run?
The value was 0.12 mg/L.

And the “Allo DC/T IFN-γ Max” value?
The value was 9 pg/mL.

Which results are given for B7?
Allo DC/T IFN-γ EC50: 0.15 mg/L; Allo DC/T IFN-γ Max: 9 pg/mL

B3 was tested. Which “Allo DC/T IFN-γ EC50” value did it give?
Its value is 0.03 mg/L.

What about the “Allo DC/T IFN-γ Max” value of the same binder?
Its value is 9.5 pg/mL.

For B4, which “Allo DC/T IFN-γ EC50” value is on record?
Its value is 0.2 mg/L.

What about the “Allo DC/T IFN-γ Max” value of the same binder?
The value was 8.7 pg/mL.

target: T1, human CD40 on cells; assay: cell-based or functional assay; remark: another data set of the same source

For B1, which “Activation of B cells, EC50 (proliferation of CD19+ B cells, Cell titer-Glo)” value (shortened to “Activation of B cells, EC50”) is on record?
Its value is 0.16 mg/L.

For B5, which “Activation of B cells, EC50” value is on record?
Its value is 0.29 mg/L.

Which “Activation of B cells, EC50” value does the source give for B6 here?
The value was 0.48 mg/L.

With B2 as the binder, how does the “Activation of B cells, EC50” value read?
The value was 0.288 mg/L.

How did the “Activation of B cells, EC50” value turn out when B7 was run?
Its value is 0.4 mg/L.

B8 was tested. Which “Activation of B cells, EC50” value did it give?
Its value is 0.21 mg/L.

With B3 as the binder, how does the “Activation of B cells, EC50” value read?
The value was 0.46 mg/L.

Which “Activation of B cells, EC50” value does the source give for B4 here?
The value was 0.204 mg/L.

target: T1, human CD40 on cells; assay: cell-based or functional assay; remark: another data set of the same source

B1 was tested. Which “Fold change in potency versus B44 antibody (rescue of huCD40/WEHI-231 cells from apoptosis and growth arrest)” value did it give?
Its value is 46 fold.

With B5 as the binder, how does the “Fold change in potency versus B44 antibody (rescue of huCD40/WEHI-231 cells from apoptosis and growth arrest)” value read?
The value was 19 fold.

How did the “Fold change in potency versus B44 antibody (rescue of huCD40/WEHI-231 cells from apoptosis and growth arrest)” value turn out when B6 was run?
The value was 38 fold.

How did the “Fold change in potency versus B44 antibody (rescue of huCD40/WEHI-231 cells from apoptosis and growth arrest)” value turn out when B2 was run?
The value was 52 fold.

target: T2, CD40hfc (R&Dsystems, USA) (UniProt P25942 21-193); assay: SPR, physiological pH and 37 C
T2 construct: Bought reagent; also called immobilized CD40 receptor; target; not shown: Fc part ('hfc') of the bought fusion
T2 sequence (P25942 21-193 limits assumed): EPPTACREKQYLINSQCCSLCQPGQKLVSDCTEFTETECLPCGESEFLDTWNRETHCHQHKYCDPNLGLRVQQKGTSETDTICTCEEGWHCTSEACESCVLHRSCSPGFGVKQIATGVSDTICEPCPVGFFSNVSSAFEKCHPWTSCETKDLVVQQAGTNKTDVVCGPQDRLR
Procedure: (§1) The affinity measures of purified antibodies by surface plasmon resonance using the Biacore 3000 instrument was performed according to manufacturer's protocols.
(§2) The CD40hfc (R&Dsystems, USA) was immobilized to the BIAcore sensorchip, CMS, using conventional amine coupling. The anti-CD40 antibodies of the invention, (serially diluted 1/3 from 1-0.012 nM) were analysed for binding in HBS-P (GE, BR-1003-68) at a flow rate of 30 μl/min at 37° C. and pH 7.3. The association was followed for 3 minutes and the dissociation for 10 minutes. Regeneration was performed twice using 50 mM NaOH for 30 seconds. The kinetic parameters and the affinity constants were calculated using BlAevaluation 4.1 software.

For B1, which “fold improvement of affinity versus B44” value is on record?
Its value is about 100 fold.

For B5, which “fold improvement of affinity versus B44” value is on record?
The value was about 100 fold.

Which “fold improvement of affinity versus B44” value does the source give for B6 here?
The value was about 100 fold.

How did the “fold improvement of affinity versus B44” value turn out when B2 was run?
The value was about 100 fold.

For B7, which “fold improvement of affinity versus B44” value is on record?
The value was about 100 fold.

How did the “fold improvement of affinity versus B44” value turn out when B8 was run?
The value was about 100 fold.

B3 was tested. Which “fold improvement of affinity versus B44” value did it give?
Its value is about 100 fold.

target: T1, human CD40 on cells; assay: flow cytometry (FACS) on RAMOS cells
Procedure: (§3) The human Burkitt's lymphoma cell line RAMOS was used for binding analysis (ECACC, Sigma Aldrich, USA). The unconjugated anti-CD40 antibodies of the invention were assayed for binding to RAMOS cells.
(§4) RAMOS cells, approximately 125,000 cells, were incubated with anti-CD40 antibody, serially diluted 1/3 from 30-0.0015 μg/ml, for 30 minutes at 4° C. The cells were washed twice with FACS buffer and the secondary antibody, anti-human Ig Rabbit F(ab′)2/FITC (DAKO, Glostrup, Denmark), was subsequently added to the cells for another 30 minutes at 4° C. The cells were washed and analysed on a FACScalibur instrument, according to the manufacturer's instructions (Becton Dickinson, USA) and then the mean fluorescent intensity (“MFI”) was determined.

How did the “fold increase in potency (binding to RAMOS cells) versus B44” value (“fold increase in potency” for short) turn out when B1 was run?
Its value is about 100 fold.

With B5 as the binder, how does the “fold increase in potency” value read?
Its value is about 100 fold.

With B6 as the binder, how does the “fold increase in potency” value read?
Its value is about 100 fold.

With B2 as the binder, how does the “fold increase in potency” value read?
Its value is about 100 fold.

Which “fold increase in potency” value does the source give for B7 here?
Its value is about 100 fold.

How did the “fold increase in potency” value turn out when B3 was run?
The value was about 100 fold.

target: T1, human CD40 on cells; assay: flow cytometry (FACS) on RAMOS cells, anti-human Ig F(ab')2-FITC detection, MFI
Procedure: as §3, §4

With B1 as the binder, how does the EC50 read?
Its EC50 is 0.007 mg/L.

How did the EC50 turn out when B5 was run?
Its EC50 is 0.0062 mg/L.

For B6, which EC50 is on record?
Its EC50 is 0.0049 mg/L.

With B2 as the binder, how does the EC50 read?
Its EC50 is 0.0061 mg/L.

How did the EC50 turn out when B7 was run?
Its EC50 is 0.0058 mg/L.

Which EC50 does the source give for B3 here?
Its EC50 is 0.0044 mg/L.

For B4, which EC50 is on record?
The EC50 was 0.38 mg/L.

target: T2, CD40hfc (R&Dsystems, USA); assay: SPR (Biacore 3000), CD40hfc amine-coupled on chip, antibody as analyte, 37 C, pH 7.3
Procedure: as §1, §2

For B1, which Kd is on record?
The Kd was 0.01 nM.

And the koff?
Its koff is 7.6e-05 s⁻¹.

What about the kon of the same binder?
The kon was 7.3e+06 M⁻¹ s⁻¹.

B5 was tested. Which Kd did it give?
The Kd was 0.011 nM.

What about the koff of the same binder?
The koff was 9.6e-05 s⁻¹.

And the kon?
The kon was 8.5e+06 M⁻¹ s⁻¹.

Which results are given for B6?
Kd: 0.014 nM; koff: 0.00012 s⁻¹; kon: 8.5e+06 M⁻¹ s⁻¹

What does the source list for B3?
Kd: 0.016 nM; koff: 0.00013 s⁻¹; kon: 8.5e+06 M⁻¹ s⁻¹

Which Kd does the source give for B4 here?
The Kd was 1.7 nM.

What about the koff of the same binder?
The koff was 0.0045 s⁻¹.

And the kon?
The kon was 2.7e+06 M⁻¹ s⁻¹.

target: T2, CD40hfc (R&Dsystems, USA); assay: SPR (Biacore 3000), CD40hfc amine-coupled on chip, antibody as analyte, 37 C, acetate buffer pH 5.4
Procedure: as §1, §2
Alternatively, samples were incubated in Acetate buffer pH 5.4, 10 mM Acetate, 150 mM NaCl, 0.005% T20, at 37° C.

Which results are given for B1?
Kd: 0.02 nM; koff: 0.00022 s⁻¹; kon: 1.1e+07 M⁻¹ s⁻¹

What does the source list for B5?
Kd: 0.022 nM; koff: 0.00025 s⁻¹; kon: 1.1e+07 M⁻¹ s⁻¹

B6 was tested. Which Kd did it give?
The Kd was 0.033 nM.

And the koff?
Its koff is 0.00032 s⁻¹.

And the kon?
The kon was 9.7e+06 M⁻¹ s⁻¹.

Which Kd does the source give for B4 here?
Its Kd is 0.93 nM.

What about the koff of the same binder?
Its koff is 0.0055 s⁻¹.

What about the kon of the same binder?
The kon was 6e+06 M⁻¹ s⁻¹.
